{
  "source": "patent US12697366B2",
  "about": "“Thermogenic compositions and methods” (Ohio State Innovation Foundation, priority 2016, dated 2026)",
  "molecules": {"B1": {"name": "IGFBP4: recombinant insulin-like growth factor binding protein 4 (protein)", "chain": "DEAIHCPPCSEEKLARCRPPVGCEELVREPGCGCCATCALGLGMPCGVYTPRCGSGLRCYPPRGVEKPLHTLMHGQGVCMELAEIEAIQESLQPSDKDEGDHPNNSFSPCSAHDRRCLQKHFAKIRDRSTSGGKMKVNGAPREDARPVPQGSCQSELHRALERLAASQSRTHEDLYIIPIPNCDRNGNFHPKQCHPALDGQRGKCWCVDRKTGVKLPGGLEPKGELDCHQLADSFRE"}},
  "key": {"3T3-L1 preadipocytes": {"system": "3T3-L1 preadipocytes", "experiment": "FD-glucose uptake in 3T3-L1 preadipocytes", "format": "cell-based, mouse", "settings": "mouse recombinant IGFBP4; human insulin 10 μg/mL; 90 min", "procedure": "Non-differentiated, 90% confluent 3T3-L1 cells were starved with glucose-deprived medium for 40 min. Then cells were treated in the presence and absence of different concentrations of nanoscaffold #2 and bovine insulin (200 μg/mL), all of reagents dissolved in the same glucose-deprived medium but containing fluorescent-D (FD)-glucose for 80 min. Thereafter, the FD glucose uptake was measured according to manufacturer's instructions (Cayman Chemical, USA, cat #600471). […] Non-differentiated, 90% confluent 3T3-L1 cells treated in the presence and absence of different concentrations of nanoscaffold #2 and bovine insulin (10 μg/mL) or mouse epiregulin (EREG, 0.05 μg/mL) and incubated for 24 h. Then cells were starved with glucose-deprived medium for 40 min and, then incubated with fluorescent-D (FD)-glucose for 80 min. Thereafter, the FD glucose uptake was measured according to manufacturer's instructions (Cayman Chemical, USA, cat #600471). Data are shown as percent of uptake in the presence of insulin (100%).\nNon-differentiated, 90% confluent 3T3-L1 cells treated in the presence of bovine insulin (10 μg/mL), mouse epiregulin (EREG, 0.05 μg/mL), or their combinations and incubated for 24 h. Then cells were starved with glucose-deprived medium for 40 min and, then incubated with fluorescent-D (FD)-glucose for 80 min. Thereafter, the FD glucose uptake was measured according to manufacturer's instructions (Cayman Chemical, USA, cat #600471).\nNon-differentiated, 90% confluent 3T3-L1 cells were starved with glucose-deprived medium for 50 min. Then cells were treated in the presence and absence of different concentrations of mouse recombinant IGFBP4 with and without nanoscaffold #2 and human insulin (10 μg/mL). All of reagents were dissolved in the same glucose-deprived medium but containing fluorescent-D (FD)-glucose for 90 min. Thereafter, the FD glucose uptake was measured according to manufacturer's instructions (Cayman Chemical, USA, cat #600471).\nGlucose uptake assay was performed using glucose uptake cell-based assay kit (Cayman Chemical, Ann Arbor, MI). 3T3-L1 or human preadipocytes were cultured at a density of 5×10^4 per well into a 96-well plate (n=7) in high glucose media and grown overnight. Old cell culture medium was removed the next day and washed with PBS to remove residual glucose. Supplied 2-deoxy-2-[(7-nitro-2,1,3-benzoxadiazol-4-yl)amino]-D-glucose) (2-NBDG) was diluted to 150 μg/mL in DMEM medium without glucose, phenol red, L-glutamine, sodium pyruvate, and HEPES (Life technologies, Grand Island, New York). 100 μL of 2-NBDG glucose free medium with or without recombinant EREG and other treatments was added to the plated cells. After incubating at 37° C. for 30 minutes, cells were washed gently two times with 200 μL of glucose assay buffer. 100 μL of the assay buffer was added to each well and measured for fluorescence at an excitation/emission of 485/535 nm.\nFluorescence glucose uptake (FD-glucose assay) was performed as described PMID: 32065973, using insulin, 1.7 μM and different AACs at concentration 0.1 μM.\nFD-glucose uptake in mouse 3T3-L1 preadipocytes (n=8 per treatment) treated with vehicle (Veh; PBS, open bar) or hINS (1.7 μM), mouse leptin (mLep; 12.5 nM, hatched bar), or AAC2 (0.1 μM black bar) in the presence and absence of GLUT1 inhibitor (BAY-876; 10 nM in DMSO). Cells were pre-treated with or without BAY-876 for 40 min and then FD glucose and treatment reagents were added for additional 80 min of incubation. Data (%) was normalized to FD-glucose uptake in control (Veh) 3T3-L1 cells without inhibitor (100%). Student's independent t-test."}, "ob/ob mice": {"system": "ob/ob mice", "experiment": "AAC2, IGFBP4 and AAC2-IGFBP4 treatment of ob/ob mice", "format": "in vivo, mouse", "settings": "ELISA, end of study", "procedure": "A study was performed in ob/ob mouse model of obesity, insulin resistance, and type 2 diabetes. Treatment groups (n=5) included vehicle (non-treated control), AAC2 nanofiber alone, IGFBP4 peptide alone, and AAC2-IGFBP4 peptide bound to nanofiber. 5-week old male Lep^ob mice (ob/ob mice, Jackson #000632-B6.Cg-Lepob/J, Homozygous for Lepob) were randomized into four groups (n=5/group). After 1 week assimilation period, mice were injected (10 μl/g body weight (BW)) into scapular region every 48 h for 4 weeks with: • Group 1: PBS vehicle control, • Group 2: 1 nmol AAC2/g BW, • Group 3: 0.0187 nmol human insulin-like growth factor binding protein 4 (hIGFBP4, Peprotech #350-05B), or • Group 4: AAC2/hIGFBP4 combination (1 nmol AAC2 and 0.0187 nmol hIGFBP4/g BW were assembled into complex prior to injection)"}},
  "data": [
    {"molecule": "B1", "values": [
      {"measurement": "glucose uptake, concentration compared with insulin", "setting": "3T3-L1 preadipocytes", "value": "improves glucose uptake at 100 lower concentration than insulin"},
      {"measurement": "hyperinsulinemia (insulin levels in the blood)", "setting": "ob/ob mice", "value": "reduction"}
    ]}
  ]
}
